Assay results taken from doi:10.1101/2025.09.16.676304, “FoxP3 forms a head-to-head dimer in vivo and stabilizes its multimerization on adjacent microsatellites”.

T1: FoxP3 RBR-FKH;NFAT1 (Mus musculus;Mus musculus, UniProt Q99JB6;Q60591 284-423;394-680, |)
T1 sequence 1: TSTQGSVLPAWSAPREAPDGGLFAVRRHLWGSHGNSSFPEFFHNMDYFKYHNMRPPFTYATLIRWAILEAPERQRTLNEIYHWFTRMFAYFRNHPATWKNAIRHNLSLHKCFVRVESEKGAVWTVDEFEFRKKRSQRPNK
T1 sequence 2: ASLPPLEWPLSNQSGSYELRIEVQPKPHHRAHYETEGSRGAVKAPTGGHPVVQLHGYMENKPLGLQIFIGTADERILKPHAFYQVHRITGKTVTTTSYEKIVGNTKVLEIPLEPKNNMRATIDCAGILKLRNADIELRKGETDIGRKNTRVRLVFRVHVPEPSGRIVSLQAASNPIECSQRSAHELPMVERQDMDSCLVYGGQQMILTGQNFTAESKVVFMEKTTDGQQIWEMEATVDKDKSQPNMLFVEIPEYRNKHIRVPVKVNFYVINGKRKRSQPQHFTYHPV

T2: FoxP1 RBR-FKH;NFAT1 (Mus musculus;Mus musculus, UniProt P58462;Q60591 427-579;394-680, |)
T2 sequence 1: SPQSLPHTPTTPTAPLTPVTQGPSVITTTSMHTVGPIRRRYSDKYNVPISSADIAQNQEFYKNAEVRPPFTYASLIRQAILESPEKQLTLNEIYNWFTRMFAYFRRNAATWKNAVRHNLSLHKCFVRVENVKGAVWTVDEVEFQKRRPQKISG
T2 sequence 2: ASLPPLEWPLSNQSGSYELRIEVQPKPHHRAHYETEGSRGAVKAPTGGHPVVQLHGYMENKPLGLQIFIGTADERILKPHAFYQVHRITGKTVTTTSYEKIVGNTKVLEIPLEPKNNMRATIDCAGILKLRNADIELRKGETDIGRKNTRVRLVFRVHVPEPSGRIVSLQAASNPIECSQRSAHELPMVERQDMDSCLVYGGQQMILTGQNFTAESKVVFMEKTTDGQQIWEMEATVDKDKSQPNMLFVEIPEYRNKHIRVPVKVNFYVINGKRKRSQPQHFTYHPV


Columns and labels:
Conditions in all cases: protein: recombinant;recombinant; tags: His6-NusA removed by HRV3C;His6-NusA removed by HRV3C; copies: 1;1
FoxP3 RBR-FKH;NFAT1 [1] = biological target: T1, FoxP3 RBR-FKH;NFAT1; assay: EMSA; NFAT 0.4 uM; FoxP3 dimer; EMSA: 20 mM HEPES pH 7.5, 150 mM NaCl, 1.5 mM MgCl2, 2 mM DTT, 4 C, 0.2 uM DNA; pull-down: 20 mM Tris-HCl pH 7.5, 100 mM NaCl, 1.5 mM MgCl2, RT, 0.4 uM protein, 0.1 uM DNA
FoxP1 RBR-FKH;NFAT1 = biological target: T2, FoxP1 RBR-FKH;NFAT1; assay: EMSA; NFAT 0.4 uM; FoxP1 monomer; EMSA: 20 mM HEPES pH 7.5, 150 mM NaCl, 1.5 mM MgCl2, 2 mM DTT, 4 C, 0.2 uM DNA; pull-down: 20 mM Tris-HCl pH 7.5, 100 mM NaCl, 1.5 mM MgCl2, RT, 0.4 uM protein, 0.1 uM DNA
FoxP3 RBR-FKH;NFAT1 [2] = biological target: T1, FoxP3 RBR-FKH;NFAT1; assay: EMSA; NFAT 0.4 uM; FoxP3 monomer; EMSA: 20 mM HEPES pH 7.5, 150 mM NaCl, 1.5 mM MgCl2, 2 mM DTT, 4 C, 0.2 uM DNA; pull-down: 20 mM Tris-HCl pH 7.5, 100 mM NaCl, 1.5 mM MgCl2, RT, 0.4 uM protein, 0.1 uM DNA

Binder | binding result (FoxP3 RBR-FKH;NFAT1 [1]) | binding result (FoxP1 RBR-FKH;NFAT1) | binding result (FoxP3 RBR-FKH;NFAT1 [2])
IR-FKHM (DNA1) (dsDNA) DNA 1: TAGGAAAATTTGTTTACTCGAGTAAACATC DNA 2: GATGTTTACTCGAGTAAACAAATTTTCCTA | binds | binds | –
sFKHM (DNA2) (dsDNA) DNA 1: TAGGAAAATTTGCCGCGTCGAGTAAACATC DNA 2: GATGTTTACTCGACGCGGCAAATTTTCCTA | – | binds | binds
